Among the data in the Human Domainome abundance scans (Beltran et al. 2025) are abundance fitness values, retold here.

± gives the uncertainty stated by the source.

To fix the notation:
B1: Receptor-interacting serine/threonine-protein kinase 2, residues 438 to 518; numbered along this chain, O43353 (parent)
chain: QWIQSKREDIVNQMTEACLNQSLDALLSRDLIMKEDYELVSTKPTRTSKVRQLLDTTDIQGEEFAKVIVQKLKDNKQMGLQ

Variants of B1 are the subject of the series. As to the kind of experiment: abundance fitness (aPCA) (normalised: wild type 0, dead -1); higher = more abundant; growth selection in yeast, the domain comes from the species named. Conditions: Homo sapiens.
On to QWIQSKREDIVNQMREACLNQSLDALLSRDLIMKEDYELVSTKPTRTSKVRQLLDTTDIQGEEFAKVIVQKLKDNKQMGLQ [T15R], for which the abundance fitness is -0.937 ± 0.11. The result for QWIQSKREDIVNQMQEACLNQSLDALLSRDLIMKEDYELVSTKPTRTSKVRQLLDTTDIQGEEFAKVIVQKLKDNKQMGLQ [T15Q] reads -0.126 ± 0.14. The value for QWIQSKREDIVNQMIEACLNQSLDALLSRDLIMKEDYELVSTKPTRTSKVRQLLDTTDIQGEEFAKVIVQKLKDNKQMGLQ [T15I] was -1.12 ± 0.34; that for QWIQSKREDIVNQMYEACLNQSLDALLSRDLIMKEDYELVSTKPTRTSKVRQLLDTTDIQGEEFAKVIVQKLKDNKQMGLQ [T15Y] was -0.946 ± 0.31; that for QWIQSKREDIVNQMAEACLNQSLDALLSRDLIMKEDYELVSTKPTRTSKVRQLLDTTDIQGEEFAKVIVQKLKDNKQMGLQ [T15A] was -0.645 ± 0.11.

Take QWIQSKREDIVNQMSEACLNQSLDALLSRDLIMKEDYELVSTKPTRTSKVRQLLDTTDIQGEEFAKVIVQKLKDNKQMGLQ [T15S]: the abundance fitness came to 0.158 ± 0.042.

On to QWIQSKREDIVNQMVEACLNQSLDALLSRDLIMKEDYELVSTKPTRTSKVRQLLDTTDIQGEEFAKVIVQKLKDNKQMGLQ [T15V], for which the abundance fitness is -0.777 ± 0.11. Turning to QWIQSKREDIVNQMDEACLNQSLDALLSRDLIMKEDYELVSTKPTRTSKVRQLLDTTDIQGEEFAKVIVQKLKDNKQMGLQ [T15D], the abundance fitness was -0.152 ± 0.11. The result for QWIQSKREDIVNQMNEACLNQSLDALLSRDLIMKEDYELVSTKPTRTSKVRQLLDTTDIQGEEFAKVIVQKLKDNKQMGLQ [T15N] reads -0.518 ± 0.093; that for QWIQSKREDIVNQMKEACLNQSLDALLSRDLIMKEDYELVSTKPTRTSKVRQLLDTTDIQGEEFAKVIVQKLKDNKQMGLQ [T15K], -0.736 ± 0.24. With QWIQSKREDIVNQMHEACLNQSLDALLSRDLIMKEDYELVSTKPTRTSKVRQLLDTTDIQGEEFAKVIVQKLKDNKQMGLQ [T15H], the abundance fitness is -1.13 ± 0.35.

For the variant QWIQSKREDIVNQMWEACLNQSLDALLSRDLIMKEDYELVSTKPTRTSKVRQLLDTTDIQGEEFAKVIVQKLKDNKQMGLQ [T15W], the abundance fitness is -1.05 ± 0.21. The result for QWIQSKREDIVNQMGEACLNQSLDALLSRDLIMKEDYELVSTKPTRTSKVRQLLDTTDIQGEEFAKVIVQKLKDNKQMGLQ [T15G] reads -0.566 ± 0.071; that for QWIQSKREDIVNQMLEACLNQSLDALLSRDLIMKEDYELVSTKPTRTSKVRQLLDTTDIQGEEFAKVIVQKLKDNKQMGLQ [T15L], -0.75 ± 0.12; that for QWIQSKREDIVNQMPEACLNQSLDALLSRDLIMKEDYELVSTKPTRTSKVRQLLDTTDIQGEEFAKVIVQKLKDNKQMGLQ [T15P], -0.492 ± 0.08. The value for QWIQSKREDIVNQMEEACLNQSLDALLSRDLIMKEDYELVSTKPTRTSKVRQLLDTTDIQGEEFAKVIVQKLKDNKQMGLQ [T15E] was -0.767 ± 0.27. Turning to QWIQSKREDIVNQMCEACLNQSLDALLSRDLIMKEDYELVSTKPTRTSKVRQLLDTTDIQGEEFAKVIVQKLKDNKQMGLQ [T15C], the abundance fitness was -0.877 ± 0.16. Regarding QWIQSKREDIVNQMTTACLNQSLDALLSRDLIMKEDYELVSTKPTRTSKVRQLLDTTDIQGEEFAKVIVQKLKDNKQMGLQ [E16T], the abundance fitness is -0.193 ± 0.079. Consider QWIQSKREDIVNQMTGACLNQSLDALLSRDLIMKEDYELVSTKPTRTSKVRQLLDTTDIQGEEFAKVIVQKLKDNKQMGLQ [E16G], for which the abundance fitness was -0.858 ± 0.098. The value for QWIQSKREDIVNQMTLACLNQSLDALLSRDLIMKEDYELVSTKPTRTSKVRQLLDTTDIQGEEFAKVIVQKLKDNKQMGLQ [E16L] was -0.288 ± 0.072; that for QWIQSKREDIVNQMTMACLNQSLDALLSRDLIMKEDYELVSTKPTRTSKVRQLLDTTDIQGEEFAKVIVQKLKDNKQMGLQ [E16M] was -0.186 ± 0.19. The value for QWIQSKREDIVNQMTVACLNQSLDALLSRDLIMKEDYELVSTKPTRTSKVRQLLDTTDIQGEEFAKVIVQKLKDNKQMGLQ [E16V] was -0.289 ± 0.067.

As for QWIQSKREDIVNQMTKACLNQSLDALLSRDLIMKEDYELVSTKPTRTSKVRQLLDTTDIQGEEFAKVIVQKLKDNKQMGLQ [E16K], the abundance fitness is -0.537 ± 0.14. QWIQSKREDIVNQMTYACLNQSLDALLSRDLIMKEDYELVSTKPTRTSKVRQLLDTTDIQGEEFAKVIVQKLKDNKQMGLQ [E16Y]: the abundance fitness was -0.576 ± 0.15. The result for QWIQSKREDIVNQMTCACLNQSLDALLSRDLIMKEDYELVSTKPTRTSKVRQLLDTTDIQGEEFAKVIVQKLKDNKQMGLQ [E16C] reads -0.853 ± 0.23; that for QWIQSKREDIVNQMTDACLNQSLDALLSRDLIMKEDYELVSTKPTRTSKVRQLLDTTDIQGEEFAKVIVQKLKDNKQMGLQ [E16D], 0.014 ± 0.11; that for QWIQSKREDIVNQMTIACLNQSLDALLSRDLIMKEDYELVSTKPTRTSKVRQLLDTTDIQGEEFAKVIVQKLKDNKQMGLQ [E16I], -0.319 ± 0.11. The value for QWIQSKREDIVNQMTQACLNQSLDALLSRDLIMKEDYELVSTKPTRTSKVRQLLDTTDIQGEEFAKVIVQKLKDNKQMGLQ [E16Q] was -0.546 ± 0.12; that for QWIQSKREDIVNQMTSACLNQSLDALLSRDLIMKEDYELVSTKPTRTSKVRQLLDTTDIQGEEFAKVIVQKLKDNKQMGLQ [E16S] was -0.272 ± 0.061. The value for QWIQSKREDIVNQMTRACLNQSLDALLSRDLIMKEDYELVSTKPTRTSKVRQLLDTTDIQGEEFAKVIVQKLKDNKQMGLQ [E16R] was -0.793 ± 0.082; that for QWIQSKREDIVNQMTPACLNQSLDALLSRDLIMKEDYELVSTKPTRTSKVRQLLDTTDIQGEEFAKVIVQKLKDNKQMGLQ [E16P] was -0.539 ± 0.078; that for QWIQSKREDIVNTMTEACLNQSLDALLSRDLIMKEDYELVSTKPTRTSKVRQLLDTTDIQGEEFAKVIVQKLKDNKQMGLQ [Q13T] was -0.19 ± 0.28.

Take QWIQSKREDIVNVMTEACLNQSLDALLSRDLIMKEDYELVSTKPTRTSKVRQLLDTTDIQGEEFAKVIVQKLKDNKQMGLQ [Q13V]: the abundance fitness is -0.199 ± 0.23. The result for QWIQSKREDIVNQMTECCLNQSLDALLSRDLIMKEDYELVSTKPTRTSKVRQLLDTTDIQGEEFAKVIVQKLKDNKQMGLQ [A17C] reads -0.107 ± 0.074.
